In FireProtDB (doi:10.1093/protein/12.10.841):
Several values for one entry are separate records, joined by “and”; a condition that tells them apart may be missing. Identical values can stand only once.

B1: Lysozyme C, P61626 (parent)
chain: MKALIVLGLVLLSVTVQGKVFERCELARTLKRLGMDGYRGISLANWMCLAKWESGYNTRATNYNAGDRSTDYGIFQINSRYWCNDGKTPGAVNACHLSCSALLQDNIADAVACAKRVVRDPQGIRAWVAWRNRCQNRDVRQYVQGCGV

Variants of: B1
Details: Homo sapiens; pH 2.7; 64.9 °C; Thermal; DSC; glycine 0.05 M; reversible: yes; structure 1LZ1; whole UniProt chain shown

Variant	ddG of mutation (higher = less stable)
I77Y	3.78 kcal/mol
I77L	0 kcal/mol
I77T	2.22 kcal/mol
I77G	3.82 kcal/mol
I77A	1.72 kcal/mol
I77V	1.1 kcal/mol
I77F	0.81 kcal/mol
I77S	3.59 kcal/mol
I74L	0.1 kcal/mol
I74F	4.09 kcal/mol
I74M	1.77 kcal/mol
I74T	3.63 kcal/mol
I74V	1.2 kcal/mol

Same assay, conditions: Homo sapiens; pH 2.7; Thermal; DSC; glycine 0.05 M; reversible: yes; structure 1LZ1; whole UniProt chain shown

Variant	change of melting temperature, mutant - wild type (higher = more stable)	heat capacity change of unfolding	unfolding enthalpy (calorimetric)	unfolding enthalpy (van 't Hoff)	Tm
I77Y	-13.8 °C	1.34 kcal/mol/K	97.8 kcal/mol	105 kcal/mol	
I77L	0 °C	1.27 kcal/mol/K	114 kcal/mol	122 kcal/mol	64.9 °C
I77T					64.9 °C
I77G	-12.7 °C	1.24 kcal/mol/K	106 kcal/mol	109 kcal/mol	52.2 °C
I77A	-5.2 °C	1.46 kcal/mol/K	115 kcal/mol	121 kcal/mol	59.7 °C
I77V	-3.4 °C	1.2 kcal/mol/K	110 kcal/mol	117 kcal/mol	61.5 °C and 64.9 °C
I77F					64.9 °C
I77S	-11.8 °C	1.2 kcal/mol/K and 1.34 kcal/mol/K	90.8 kcal/mol and 107 kcal/mol	96.8 kcal/mol and 114 kcal/mol	
I77M	-4.2 °C	1.27 kcal/mol/K	106 kcal/mol	115 kcal/mol	60.7 °C and 64.9 °C
I74L	-0.3 °C	1.41 kcal/mol/K	107 kcal/mol	119 kcal/mol	64.6 °C and 64.9 °C
I74F	-15 °C	1.82 kcal/mol/K	102 kcal/mol	106 kcal/mol	
I74M	-5.8 °C	1.63 kcal/mol/K and 1.53 kcal/mol/K	97.3 kcal/mol and 106 kcal/mol	107 kcal/mol and 115 kcal/mol	
I74G	-2.7 °C				62.2 °C
I74T	-12.5 °C	1.08 kcal/mol/K	102 kcal/mol	108 kcal/mol	
I74A					64.9 °C
I74V	-3.6 °C	1.34 kcal/mol/K	114 kcal/mol	117 kcal/mol	61.3 °C and 64.9 °C

Same assay, conditions: Homo sapiens; pH 2.71; Thermal; DSC; glycine 0.05 M; reversible: yes; structure 1LZ1; whole UniProt chain shown

Variant	Tm	heat capacity change of unfolding	unfolding enthalpy (calorimetric)	unfolding enthalpy (van 't Hoff)
I77Y	51.4 °C	1.55 kcal/mol/K	79.3 kcal/mol	84.4 kcal/mol

Same assay, conditions: Homo sapiens; pH 3.18; Thermal; DSC; glycine 0.05 M; reversible: yes; structure 1LZ1; whole UniProt chain shown

Variant	Tm	heat capacity change of unfolding	unfolding enthalpy (calorimetric)	unfolding enthalpy (van 't Hoff)
I77Y	59.5 °C	1.27 kcal/mol/K	90.6 kcal/mol	97 kcal/mol

Same assay, conditions: Homo sapiens; pH 2.51; Thermal; DSC; glycine 0.05 M; reversible: yes; structure 1LZ1; whole UniProt chain shown

Variant	Tm	heat capacity change of unfolding	unfolding enthalpy (calorimetric)	unfolding enthalpy (van 't Hoff)
I77L	61.4 °C	1.12 kcal/mol/K	109 kcal/mol	117 kcal/mol
I77S	50.2 °C	1.27 kcal/mol/K	87 kcal/mol	92.7 kcal/mol

Same assay, conditions: Homo sapiens; pH 2.66; Thermal; DSC; glycine 0.05 M; reversible: yes; structure 1LZ1; whole UniProt chain shown

Variant	Tm	heat capacity change of unfolding	unfolding enthalpy (calorimetric)	unfolding enthalpy (van 't Hoff)
I77L	64.5 °C	1.17 kcal/mol/K	113 kcal/mol	122 kcal/mol

Same assay, conditions: Homo sapiens; pH 2.83; Thermal; DSC; glycine 0.05 M; reversible: yes; structure 1LZ1; whole UniProt chain shown

Variant	Tm	heat capacity change of unfolding	unfolding enthalpy (calorimetric)	unfolding enthalpy (van 't Hoff)
I77L	67 °C	1.17 kcal/mol/K	116 kcal/mol	126 kcal/mol
I74M	61.3 °C	1.72 kcal/mol/K	101 kcal/mol	110 kcal/mol

Same assay, conditions: Homo sapiens; pH 2.96; Thermal; DSC; glycine 0.05 M; reversible: yes; structure 1LZ1; whole UniProt chain shown

Variant	Tm	heat capacity change of unfolding	unfolding enthalpy (calorimetric)	unfolding enthalpy (van 't Hoff)
I77L	69.8 °C	1.31 kcal/mol/K	119 kcal/mol	128 kcal/mol
I74L	68.7 °C	1.27 kcal/mol/K	112 kcal/mol	125 kcal/mol

Same assay, conditions: Homo sapiens; pH 3.17; Thermal; DSC; glycine 0.05 M; reversible: yes; structure 1LZ1; whole UniProt chain shown

Variant	Tm	heat capacity change of unfolding	unfolding enthalpy (calorimetric)	unfolding enthalpy (van 't Hoff)
I77L	72.1 °C	1.24 kcal/mol/K	123 kcal/mol	132 kcal/mol
I77S	60 °C	1.24 kcal/mol/K	99.9 kcal/mol	106 kcal/mol

Same assay, conditions: Homo sapiens; pH 2.4; Thermal; DSC; glycine 0.05 M; reversible: yes; structure 1LZ1; whole UniProt chain shown

Variant	Tm	heat capacity change of unfolding	unfolding enthalpy (calorimetric)	unfolding enthalpy (van 't Hoff)
I77T	52.9 °C	1.65 kcal/mol/K	90.3 kcal/mol	98.7 kcal/mol

Same assay, conditions: Homo sapiens; pH 2.62; Thermal; DSC; glycine 0.05 M; reversible: yes; structure 1LZ1; whole UniProt chain shown

Variant	Tm	heat capacity change of unfolding	unfolding enthalpy (calorimetric)	unfolding enthalpy (van 't Hoff)
I77T	56.9 °C	1.67 kcal/mol/K	104 kcal/mol	105 kcal/mol

Same assay, conditions: Homo sapiens; pH 2.8; Thermal; DSC; glycine 0.05 M; reversible: yes; structure 1LZ1; whole UniProt chain shown

Variant	Tm	heat capacity change of unfolding	unfolding enthalpy (calorimetric)	unfolding enthalpy (van 't Hoff)
I77T	59.5 °C	1.17 kcal/mol/K	106 kcal/mol	110 kcal/mol
I77M	62 °C	1.2 kcal/mol/K	103 kcal/mol	110 kcal/mol

Same assay, conditions: Homo sapiens; pH 2.99; Thermal; DSC; glycine 0.05 M; reversible: yes; structure 1LZ1; whole UniProt chain shown

Variant	Tm	heat capacity change of unfolding	unfolding enthalpy (calorimetric)	unfolding enthalpy (van 't Hoff)
I77T	62.9 °C	1.39 kcal/mol/K	107 kcal/mol	107 kcal/mol

Same assay, conditions: Homo sapiens; pH 3.15; Thermal; DSC; glycine 0.05 M; reversible: yes; structure 1LZ1; whole UniProt chain shown

Variant	Tm	heat capacity change of unfolding	unfolding enthalpy (calorimetric)	unfolding enthalpy (van 't Hoff)
I77T	64.9 °C	1.2 kcal/mol/K	111 kcal/mol	119 kcal/mol
I77F	69.8 °C	1.36 kcal/mol/K	114 kcal/mol	123 kcal/mol

Same assay, conditions: Homo sapiens; pH 2.54; Thermal; DSC; glycine 0.05 M; reversible: yes; structure 1LZ1; whole UniProt chain shown

Variant	Tm	heat capacity change of unfolding	unfolding enthalpy (calorimetric)	unfolding enthalpy (van 't Hoff)
I77F	59.8 °C	1.41 kcal/mol/K	99.9 kcal/mol	108 kcal/mol
I74M	56.3 °C	1.39 kcal/mol/K	92.5 kcal/mol	103 kcal/mol

Same assay, conditions: Homo sapiens; pH 2.73; Thermal; DSC; glycine 0.05 M; reversible: yes; structure 1LZ1; whole UniProt chain shown

Variant	Tm	heat capacity change of unfolding	unfolding enthalpy (calorimetric)	unfolding enthalpy (van 't Hoff)
I77F	62.8 °C	1.58 kcal/mol/K	104 kcal/mol	112 kcal/mol

Same assay, conditions: Homo sapiens; pH 2.9; Thermal; DSC; glycine 0.05 M; reversible: yes; structure 1LZ1; whole UniProt chain shown

Variant	Tm	heat capacity change of unfolding	unfolding enthalpy (calorimetric)	unfolding enthalpy (van 't Hoff)
I77F	65.4 °C	1.2 kcal/mol/K	108 kcal/mol	116 kcal/mol

Same assay, conditions: Homo sapiens; pH 3.05; Thermal; DSC; glycine 0.05 M; reversible: yes; structure 1LZ1; whole UniProt chain shown

Variant	Tm	heat capacity change of unfolding	unfolding enthalpy (calorimetric)	unfolding enthalpy (van 't Hoff)
I77F	68 °C	1.29 kcal/mol/K	111 kcal/mol	120 kcal/mol

Same assay, conditions: Homo sapiens; pH 2.84; Thermal; DSC; glycine 0.05 M; reversible: yes; structure 1LZ1; whole UniProt chain shown

Variant	Tm	heat capacity change of unfolding	unfolding enthalpy (calorimetric)	unfolding enthalpy (van 't Hoff)
I77S	55.3 °C	1.55 kcal/mol/K	94.7 kcal/mol	99.9 kcal/mol

Same assay, conditions: Homo sapiens; pH 3.04; Thermal; DSC; glycine 0.05 M; reversible: yes; structure 1LZ1; whole UniProt chain shown

Variant	Tm	heat capacity change of unfolding	unfolding enthalpy (calorimetric)	unfolding enthalpy (van 't Hoff)
I77S	58.2 °C	1.48 kcal/mol/K	98.2 kcal/mol	104 kcal/mol

Same assay, conditions: Homo sapiens; pH 2.65; Thermal; DSC; glycine 0.05 M; reversible: yes; structure 1LZ1; whole UniProt chain shown

Variant	Tm	heat capacity change of unfolding	unfolding enthalpy (calorimetric)	unfolding enthalpy (van 't Hoff)
I77M	59.9 °C	1 kcal/mol/K	98.5 kcal/mol	108 kcal/mol
I74L	64 °C	1.55 kcal/mol/K	105 kcal/mol	119 kcal/mol

Same assay, conditions: Homo sapiens; pH 2.95; Thermal; DSC; glycine 0.05 M; reversible: yes; structure 1LZ1; whole UniProt chain shown

Variant	Tm	heat capacity change of unfolding	unfolding enthalpy (calorimetric)	unfolding enthalpy (van 't Hoff)
I77M	64.8 °C	1.1 kcal/mol/K	106 kcal/mol	114 kcal/mol

Same assay, conditions: Homo sapiens; pH 3.13; Thermal; DSC; glycine 0.05 M; reversible: yes; structure 1LZ1; whole UniProt chain shown

Variant	Tm	heat capacity change of unfolding	unfolding enthalpy (calorimetric)	unfolding enthalpy (van 't Hoff)
I77M	66.5 °C	1.15 kcal/mol/K	107 kcal/mol	117 kcal/mol

Same assay, conditions: Homo sapiens; pH 2.48; Thermal; DSC; glycine 0.05 M; reversible: yes; structure 1LZ1; whole UniProt chain shown

Variant	Tm	heat capacity change of unfolding	unfolding enthalpy (calorimetric)	unfolding enthalpy (van 't Hoff)
I74L	61.2 °C	1.41 kcal/mol/K	103 kcal/mol	113 kcal/mol

Same assay, conditions: Homo sapiens; pH 2.75; Thermal; DSC; glycine 0.05 M; reversible: yes; structure 1LZ1; whole UniProt chain shown

Variant	Tm	heat capacity change of unfolding	unfolding enthalpy (calorimetric)	unfolding enthalpy (van 't Hoff)
I74F	50.8 °C	1.89 kcal/mol/K	76 kcal/mol	79.3 kcal/mol

Same assay, conditions: Homo sapiens; pH 3.06; Thermal; DSC; glycine 0.05 M; reversible: yes; structure 1LZ1; whole UniProt chain shown

Variant	Tm	heat capacity change of unfolding	unfolding enthalpy (calorimetric)	unfolding enthalpy (van 't Hoff)
I74F	56.3 °C	1.77 kcal/mol/K	86 kcal/mol	89.6 kcal/mol

Same assay, conditions: Homo sapiens; pH 3.02; Thermal; DSC; glycine 0.05 M; reversible: yes; structure 1LZ1; whole UniProt chain shown

Variant	Tm	heat capacity change of unfolding	unfolding enthalpy (calorimetric)	unfolding enthalpy (van 't Hoff)
I74M	64.2 °C	1.43 kcal/mol/K	105 kcal/mol	113 kcal/mol

Same assay, conditions: Homo sapiens; pH 3.11; Thermal; DSC; glycine 0.05 M; reversible: yes; structure 1LZ1; whole UniProt chain shown

Variant	Tm	heat capacity change of unfolding	unfolding enthalpy (calorimetric)	unfolding enthalpy (van 't Hoff)
I74M	65.9 °C	1.53 kcal/mol/K	107 kcal/mol	116 kcal/mol
